In PMC7226732 (2020):

B1: V5-Cx40 (wild type) [rat] / GFP-LC3B (expressed in HEK293A cells) [not stated (human cDNA cloned; a plasmid from Dr. Yoshimori also named)] (parent complex)
chain 1: MGDWSFLGEFLEEVHKHSTVIGKVWLTVLFIFRMLVLGTAAESSWGDEQADFRCDTIQPGCQNVCYDQAFPISHIRYWVLQIIFVSTPSLVYMGHAMHTVRMQEKQKLREAEKAKEAGGTGTYEYLAEKAELSCWKEVNGKIVLQGTLLNTYVCTILIRTAMEVAFMVGQYLLYGIFLDTLHVCRRSPCPHPVNCYVSRPTEKNVFIVFMMAVAGLSLFLSLAELYHLGWKKIRQRLAKSRQGDKHQLLGPSTSLVQGLTPPPDFNQCLKNSPDEKFFSDFSNNMGSRKNPDPLATEEVPNQEQIPEEGFIHTQYGQKPEQPSGASAGHRFPQGYHSDKRRLSKASSKARSDDLSV
chain 2: not shown

Variants of: B1
Assay: co-immunoprecipitation (IP: V5) and Western blot quantification; HEK293A cell lysates; read off a plot

Variant | ratio to parent
chain 1 W4A, chain 1 L7A | ~1.9
